Patent US20260152568A1 (NECTIN THERAPEUTICS, published 2026)
Residue numbers refer to the chain shown, from its start. In names and notes the source's numbering stands.

T1: PVR conjugated to Histidine tag (PVR-HIS, Sino Cat. no. 10109-H08H) (Homo sapiens (Human), UniProt P15151 21-343)
T1 construct: Bought reagent; also called PVR-HIS tagged
T1 sequence: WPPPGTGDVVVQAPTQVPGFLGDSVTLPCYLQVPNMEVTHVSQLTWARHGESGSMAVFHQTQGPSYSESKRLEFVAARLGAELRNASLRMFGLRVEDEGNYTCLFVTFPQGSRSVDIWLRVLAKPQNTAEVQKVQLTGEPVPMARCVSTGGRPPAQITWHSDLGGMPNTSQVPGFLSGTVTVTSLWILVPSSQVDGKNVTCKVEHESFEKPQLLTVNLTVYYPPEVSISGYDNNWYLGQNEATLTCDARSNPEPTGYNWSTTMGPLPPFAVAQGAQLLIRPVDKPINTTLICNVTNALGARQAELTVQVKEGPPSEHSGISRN

T2: human PVR (SPR of the humanized variants, Example 5) (human, UniProt P15151 21-343)
T2 sequence: T1 sequence

T3: chlorocebus (African green monkey) PVR expressed on Vero cells (chlorocebus (African green monkey), UniProt P32506 21-417)
T3 construct: whole, on cells; also called chlorocebus PVR
T3 sequence (looked up): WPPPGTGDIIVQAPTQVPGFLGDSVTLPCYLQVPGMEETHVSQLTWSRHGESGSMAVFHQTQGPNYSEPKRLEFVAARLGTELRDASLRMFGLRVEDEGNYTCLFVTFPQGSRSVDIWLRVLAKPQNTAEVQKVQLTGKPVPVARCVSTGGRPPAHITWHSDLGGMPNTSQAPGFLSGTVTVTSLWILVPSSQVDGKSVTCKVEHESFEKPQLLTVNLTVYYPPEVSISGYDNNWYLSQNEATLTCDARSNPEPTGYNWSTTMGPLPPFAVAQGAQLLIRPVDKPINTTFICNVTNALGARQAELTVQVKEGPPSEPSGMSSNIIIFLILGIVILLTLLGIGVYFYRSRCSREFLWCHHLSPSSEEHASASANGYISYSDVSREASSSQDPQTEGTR

B1: chimeric anti-PVR antibody 5B9 wild type, IgG4 (S241P), VH0/VK0 (antibody, V domains shown)
VH: QVQLQQSGAELMKPGASVKISCKATGYTFSNYWIEWIKQRPGHGLEWIGEIFPGSGRINFNEKFKGKATFTADTSSDTTYMQLSSLTSADSAVYYCARTKIYGNSFDYWGQGTTLTVSP
VL: DIMMTQSHKFMSTSVGDRVNITCKASQDVGTAVVWYQQKPGQSPKLLIYWASSRHNGVPDRFTGSGSGTDFTLTISNVQSEDLSDYFCQQYSRYPLTFGAGTKLELK
notes: Mouse/human chimeric antibody with human IgG4 (S241P) constant region; also called WT; parental N56 variant (VH0VK0)
B2: VH0/Vκ0 Ala56 (antibody, V domains shown)
VH: B1 VH
VL: B1 VL with N56A
notes: chimeric 5B9 N56 substitution variant; also called N56A
B3: VH0/Vκ0 Pro56 (antibody, V domains shown)
VH: B1 VH
VL: B1 VL with N56P
notes: chimeric 5B9 N56 substitution variant; also called N56P
B4: VH0/Vκ0 Ser56 (antibody, V domains shown)
VH: B1 VH
VL: B1 VL with N56S
notes: chimeric 5B9 N56 substitution variant; also called N56S
B5: VH0/Vκ0 Thr56 (antibody, V domains shown)
VH: B1 VH
VL: B1 VL with N56T
notes: chimeric 5B9 N56 substitution variant; also called N56T
B6: chimeric 5B9 N56D variant, IgG4 (S241P) (antibody, name in Kabat numbering, V domains shown)
VH: B1 VH
VL: B1 VL with N56D
notes: Human IgG4 (S241P) constant region
B7: chimeric 5B9 N56E variant, IgG4(S241P) N56E_VH0/VK0 (antibody, name in Kabat numbering, V domains shown)
VH: B1 VH
VL: B1 VL with N56E
notes: Human IgG4 (S241P) constant region; also called chimeric N56E mutated parental antibody
B8: humanized 5B9 variant VH2/VK3 (antibody, V domains shown)
VH: QVQLVQSGAEVKKPGASVKISCKATGYTFSNYWIEWIKQAPGQGLEWIGEIFPGSGRINFNEKFKGRATFTADTSIDTTYMELSRLRSDDTAVYYCARTKIYGNSFDYWGQGTLVTVSS
VL: DIQMTQSPSSLSASVGDRVTITCRASQDVGTAVVWYQQKPGKAPKLLIYWASSRHEGVPSRFSGSGSGTDFTLTISSLQPEDFATYFCQQYSRYPLTFGQGTKLEIK
B9: humanized 5B9 variant VH3/VK3 (antibody, V domains shown)
VH: B8 VH with I20V, A68V, D77S
VL: B8 VL
B10: humanized 5B9 variant VH4/VK3 (antibody, V domains shown)
VH: B8 VH with I20V, I37V, K38R, A68V, D77S
VL: B8 VL
B11: humanized 5B9 variant VH5/VK2 (antibody, V domains shown)
VH: B8 VH with I20V, I37V, K38R, I48M, A68V, D77S, T79A
VL: B8 VL with R24K, S60D, T85D
B12: humanized 5B9 variant VH5/VK3 (antibody, V domains shown)
VH: B8 VH with I20V, I37V, K38R, I48M, A68V, D77S, T79A
VL: B8 VL

biological target: T1, PVR conjugated to Histidine tag …; experiment: SPR (Biacore T200); KD divided by the KD of VH0/Vκ0 WT
Procedure: FIGS. 1A-1B. Affinity and competition assays of N56 substitutions. FIG. 1A. […] Biacore assay showing relative and absolute affinity of the N56 substitutions (hIgG4 variants) to PVR-HIS tagged (Sino Cat. no. 10109-H08H). Affinity shift of >25% were considered significant.
(§1) Seven chimeric variants were generated by introducing a point mutation at residue asparagine N56. […] Binding was tested for the analyte PVR conjugated to Histidine tag (PVR-HIS, Sino Cat. no. 10109-H08H). Dilution range: Five point two-fold dilution from 50 nM to 3.125 nM. Conditions used: Instrument: Biacore T200 (serial no. 1909913) running Biacore T200 Evaluation Software V2.0.1. Running buffer: HBS-P+, 300 mM NaCl, 1 mg/ml BSA. Flow rate: […]. Association: 350 s, Dissociation: 800 s. Regeneration: 10 mM glycine pH 1.5. Analysis: 1:1 binding.

Binder	Relative KD
B1	1
B2	0.89
B3	1.48
B4	1.05
B5	0.86
B6	0.64
B7	0.69

biological target: human poliovirus receptor (PVR, CD155) expressed on cells (human) (UniProt P15151); experiment: flow cytometry, binding to PVR-expressing HEK 293 cells

Binder	EC50 [nM]
B7	0.79
B8	0.6
B9	0.53
B10	0.59
B11	0.64
B12	0.57

biological target: T1, PVR conjugated to Histidine tag …; experiment: SPR (Biacore T200), antibody captured on Protein A chip, PVR-HIS as analyte, 1:1 binding
Procedure: as §1

Binder	Kd [nM]	koff [s⁻¹]	kon [M⁻¹ s⁻¹]
B1	5.12	0.000715	140000
B2	4.57	0.000701	154000
B3	7.58	0.00105	138000
B4	4.61	0.000701	152000
B5	4.4	0.000688	156000
B6	3.27	0.000637	195000
B7	3.55	0.000653	184000

biological target: T2, human PVR (SPR of the humanized …); experiment: SPR; relative to N56E VH0/Vκ0

Binder	Relative KD
B7	1
B8	0.93
B9	0.98
B10	0.92
B11	1.03
B12	1.34

biological target: T2, human PVR (SPR of the humanized …); experiment: SPR

Binder	Kd [nM]
B7	5.54
B8	5.14
B9	5.42
B10	5.11
B11	5.68
B12	7.41

biological target: T3, chlorocebus (African green monkey) PVR …; experiment: flow cytometry, 10 ug/ml antibody on Vero cells; MFI divided by the MFI of K0
Procedure: FIGS. 2A-2B. […] To assess maximal binding, saturating dose (10 ug/ml) of the N56 variant monoclonal antibodies (shown at the X axis) were used to stain PVR-expressing cells, and mean fluorescence intensity (MFI) values were determined by FACS analysis. […] (FIG. 2A) NCI-H1975 (human lung) cells and (FIG. 2B) Vero (African green monkey kidney) cells. Affinity shifts of >25% were considered significant.
The binding of the N56 substitution variant antibodies to cell bound PVR of human (protein id: Q92692) and chlorocebus (African green monkey, protein id: UniProtKB—P32506) was examined. FIG. 2A depicts the relative binding of all variants, which were added in saturating concentration (10 ug/ml), to NCI-H1975 cells expressing human PVR. FIG. 2B depicts the relative binding of all variants, which were added in saturating concentration (10 ug/ml), to Vero cells expressing chlorocebus PVR. […] Cell binding of the Abs was analyzed by FACS.

Binder	Fold change MFI
B1	1
B2	1.2
B4	0.73
B5	1.19
B6	1.27
B7	1.31

biological target: human poliovirus receptor (PVR, CD155) expressed on cells (human) (UniProt P15151); experiment: flow cytometry, binding to PVR-expressing HEK 293 cells; relative to N56E VH0/Vκ0

Binder	Relative EC50
B8	0.76
B9	0.68
B10	0.75
B11	0.82
B12	0.72
